The text below walks through data of patent publication US20220048996A1 (F STAR BETA, published 2022).

Assay [1] addresses T1, mouse CD137 expressed on DO11.10 cells (DO11.10-mCD137) (mouse, UniProt P20334 24-256).
T1 construct: also called CD137 on mouse T cells
The experiment in a line: flow cytometry on DO11.10 cells expressing the target. Here is the method:
The binding affinity of the FS20m-232-91AA/Lob12.3 mAb² for cell-expressed mouse OX40 and CD137 was determined using flow cytometry. […] DO11.10-mOX40, DO11.10-mCD137, or HEK cell suspensions were prepared in PBS+2% BSA (Sigma, A7906) and seeded at 4×10⁶ cell/ml with 50 μl/well in V-bottomed 96-well plates (Costar, 3897). 50 μl of the antibody dilutions were added to the wells containing cells (final volume 100 μl ) and incubated at 4° C. for 1 hour. […] The plates were washed and resuspended in 100 μl of PBS containing DAPI (Biotium, cat no 40043) at 1 μg/ml. The plates were analysed using a Canto II flow cytometer (BD Bioscience) and the data analysed using FlowJo. Dead cells were identified by their higher fluorescence on the UV (405 nm/450/50) channel and excluded from analysis. […] The GMFI data was fit using log (agonist) vs response (three parameters) in GraphPad Prism Software to generate EC₅₀ values.
On the technique in general: Flow cytometry measures light scatter and fluorescence of single cells or particles in a stream.

Assay [2] concerns the target T2, mouse OX40 expressed on DO11.10 cells (DO11.10-mOX40) (mouse, UniProt P47741 20-272).
T2 sequence: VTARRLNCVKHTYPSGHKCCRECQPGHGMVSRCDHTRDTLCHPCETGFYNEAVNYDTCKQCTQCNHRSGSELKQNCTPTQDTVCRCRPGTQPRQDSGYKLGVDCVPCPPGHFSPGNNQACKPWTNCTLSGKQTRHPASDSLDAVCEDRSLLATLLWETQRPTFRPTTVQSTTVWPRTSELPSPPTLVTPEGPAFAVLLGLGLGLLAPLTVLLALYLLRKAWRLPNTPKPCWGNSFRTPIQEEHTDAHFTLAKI
The experiment in a line: cell-based or functional assay.

The target of assay [3] is T3, cynomolgus CD137 expressed on DO11.10 cells (DO11.10-cCD137) (cynomolgus monkey, UniProt Q07011 24-255 (human entry)).
T3 chain: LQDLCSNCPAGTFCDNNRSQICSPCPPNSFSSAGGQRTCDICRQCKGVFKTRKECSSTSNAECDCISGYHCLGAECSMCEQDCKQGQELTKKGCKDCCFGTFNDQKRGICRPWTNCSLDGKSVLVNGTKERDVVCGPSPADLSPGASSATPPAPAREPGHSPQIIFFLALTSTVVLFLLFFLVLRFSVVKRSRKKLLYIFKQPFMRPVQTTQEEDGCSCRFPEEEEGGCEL
The experiment in a line: flow cytometry on DO11.10 cells expressing the target. Here is the method: (§1) 50 μl of the antibody dilutions were added to the wells containing cells (final volume 100 μl) and incubated at 4° C. for 1 hour. […] The plates were washed and resuspended in 100 μl of PBS containing DAPI (Biotium, cat no 40043) at 1 μg/ml. The plates were analysed using a Canto II flow cytometer (BD Bioscience) and the data analysed using FlowJo. Dead cells were identified by their higher fluorescence on the UV (405 nm/450/50) channel and excluded from analysis. […] The GMFI data was fit using log (agonist) vs response (three parameters) in Graph Pad Prism Software to generate EC₅₀ values.

Assay [4] addresses T4, cynomolgus OX40 expressed on DO11.10 cells (DO11.10-cOX40) (cynomolgus, UniProt P43489 29-277 (human entry)).
T4 chain: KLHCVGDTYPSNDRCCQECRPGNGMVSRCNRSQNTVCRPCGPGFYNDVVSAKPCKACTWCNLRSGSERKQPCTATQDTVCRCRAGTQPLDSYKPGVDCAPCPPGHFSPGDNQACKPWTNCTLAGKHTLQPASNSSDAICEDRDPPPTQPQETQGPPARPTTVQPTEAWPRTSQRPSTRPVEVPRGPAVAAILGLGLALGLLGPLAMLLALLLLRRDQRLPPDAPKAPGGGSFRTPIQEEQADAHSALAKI
The description is as above. As for the experimental part:
as §1

Assay [5] has as its target T5, human OX40 expressed on DO11.10 cells (DO11.10-hOX40) (human, UniProt P43489 29-277).
T5 construct: Also used here for OX40 on primary human T cells in the functional rows; also called human OX40 receptor; OX40 on human T cells
T5 sequence: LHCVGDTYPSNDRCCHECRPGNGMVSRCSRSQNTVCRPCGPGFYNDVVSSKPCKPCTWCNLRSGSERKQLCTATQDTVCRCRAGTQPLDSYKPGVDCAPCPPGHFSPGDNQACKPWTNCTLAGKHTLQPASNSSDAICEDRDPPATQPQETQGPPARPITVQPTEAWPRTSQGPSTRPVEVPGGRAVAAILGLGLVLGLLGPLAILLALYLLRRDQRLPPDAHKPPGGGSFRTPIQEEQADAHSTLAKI
Described as above. Here is the method:
as §1

Assay [6] addresses T6, human CD137 expressed on DO11.10 cells (DO11.10-hCD137) (human, UniProt Q07011 24-255).
T6 construct: also called CD137 on human T cells
The description is as above. Here is the method:
as §1

The target of a further assay is T7, hCD137-mFc-Avi (human).
T7 construct: Dimer; a biotinylated version was used where the text says so; also called human CD137-mFc-Avi; hCD137-mFc-Avi-Bio
The assay is described as follows: SPR, antibody captured via anti-human Fc, dimeric antigen flowed, 1:1 fit. Here is the method:
(§2) For CD137 affinity determination, a Biacore CM5 chip (GE Healthcare) was coated with anti-human Fc using a Human Antibody Capture Kit (GE Healthcare) according to manufacturer's conditions, to a surface density of approximately 4000 RU. […] Human or cynomolgus CD137 (hCD137-mFc-Avi or cCD137-mFc-Avi) was flowed over at a range of concentrations in a three-fold dilution series starting at 200 nM, at a flow rate of 70 μl/min. The association time was 2 min and the dissociation time was 8 min. Running buffer was HBS-EP (GE Healthcare BR100188). Flow cells were regenerated by injecting 3M magnesium chloride at a flow rate of 30 μl/min for 30 seconds.
(§3) The binding kinetics were fit with a 1:1 Langmuir model to generate binding association (kₐ) and dissociation (kd) rates. Equilibrium binding constants (KD) were calculated by dividing the dissociation rate by the association rate for each sample. Data analysis was performed with BiaEvaluation software version 3.2.
For orientation: SPR reads the build-up and loss of mass on a sensor chip optically.

For another assay, the target named is T8, cCD137-mFc-Avi (cynomolgus monkey).
T8 construct: 139 used; also called cyno CD137-mFc-Avi; recombinant cyno CD137
T8 chain: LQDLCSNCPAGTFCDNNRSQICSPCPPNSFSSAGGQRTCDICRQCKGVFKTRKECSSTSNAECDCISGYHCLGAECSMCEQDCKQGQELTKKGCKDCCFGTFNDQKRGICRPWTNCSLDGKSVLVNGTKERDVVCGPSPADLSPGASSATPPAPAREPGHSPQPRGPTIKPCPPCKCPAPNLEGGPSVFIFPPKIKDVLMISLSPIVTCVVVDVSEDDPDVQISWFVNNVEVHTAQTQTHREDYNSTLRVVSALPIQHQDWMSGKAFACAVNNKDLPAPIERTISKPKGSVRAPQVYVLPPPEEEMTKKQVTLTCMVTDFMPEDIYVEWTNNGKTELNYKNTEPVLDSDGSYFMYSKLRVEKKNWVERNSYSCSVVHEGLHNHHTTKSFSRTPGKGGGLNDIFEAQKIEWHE
Described as above. As for the experimental part:
as §2, §3

Assay [7] addresses T5, human OX40 expressed on DO11.10 cells …. The experiment in a line: cell-based or functional assay.
Assay [8] addresses T6, human CD137 expressed on DO11.10 cells …. The experiment in a line: cell-based or functional assay.
Target sequence in this assay (Q07011 24-255): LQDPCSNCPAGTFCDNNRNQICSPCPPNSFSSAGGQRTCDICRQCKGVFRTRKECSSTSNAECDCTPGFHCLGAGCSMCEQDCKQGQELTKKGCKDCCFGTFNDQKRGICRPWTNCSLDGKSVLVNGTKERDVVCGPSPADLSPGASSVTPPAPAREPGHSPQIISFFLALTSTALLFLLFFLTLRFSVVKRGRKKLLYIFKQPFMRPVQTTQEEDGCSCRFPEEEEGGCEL
A further assay deals with T9, hOX40-mFc (human).
T9 construct: Dimeric; also called human OX40-mFc
T9 chain: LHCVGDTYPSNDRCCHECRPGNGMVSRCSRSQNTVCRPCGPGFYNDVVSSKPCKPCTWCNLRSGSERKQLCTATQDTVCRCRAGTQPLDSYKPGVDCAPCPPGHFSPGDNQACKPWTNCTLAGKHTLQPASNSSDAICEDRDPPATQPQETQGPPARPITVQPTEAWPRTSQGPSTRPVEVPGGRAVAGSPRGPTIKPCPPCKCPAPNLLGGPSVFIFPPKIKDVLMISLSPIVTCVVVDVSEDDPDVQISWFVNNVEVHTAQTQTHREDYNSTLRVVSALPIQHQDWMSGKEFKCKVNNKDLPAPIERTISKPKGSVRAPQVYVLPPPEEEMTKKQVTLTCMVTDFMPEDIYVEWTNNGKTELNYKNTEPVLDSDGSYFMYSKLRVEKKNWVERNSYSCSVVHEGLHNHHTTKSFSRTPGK
The experiment in a line: SPR, antibody captured via anti-human Fab, dimeric antigen flowed, 1:1 fit. Here is the method: (§4) For OX40 affinity determination a Biacore CM5 chip was coated with anti-human Fab using a Human Fab Capture Kit (GE Healthcare 28958325) according to manufacturer's conditions, to a surface density of approximately 8000 RU. […] The association time was 2 min and the dissociation time was 8 min. Running buffer was HBS-EP. Flow cells were regenerated by injecting glycine-HCl at pH 2.1 at a flow rate of 30 μl/min for 30 seconds.
as §3

A further assay concerns the target T10, cOX40-mFc (cynomolgus).
T10 construct: Dimeric; also called cyno OX40-mFc
T10 chain: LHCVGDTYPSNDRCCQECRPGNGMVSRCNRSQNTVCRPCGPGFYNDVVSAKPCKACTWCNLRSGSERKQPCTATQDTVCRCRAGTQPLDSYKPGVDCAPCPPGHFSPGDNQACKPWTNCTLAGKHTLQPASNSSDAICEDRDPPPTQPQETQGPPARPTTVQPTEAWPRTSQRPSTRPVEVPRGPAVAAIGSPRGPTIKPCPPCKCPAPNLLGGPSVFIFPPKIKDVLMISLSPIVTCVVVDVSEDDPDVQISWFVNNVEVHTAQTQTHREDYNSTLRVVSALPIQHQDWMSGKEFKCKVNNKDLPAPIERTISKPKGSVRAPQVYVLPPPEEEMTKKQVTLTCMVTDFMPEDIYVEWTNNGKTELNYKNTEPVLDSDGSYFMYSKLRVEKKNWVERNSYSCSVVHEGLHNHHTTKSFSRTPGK
The description is as above. As for the experimental part:
as §4, §3

The target in assay [9] is T6, human CD137 expressed on DO11.10 cells …. The assay is described as follows: cell-based or functional assay. This is another data set of the same source.

Positions count from the first letter of the chain named.

T1 sequence (P20334 24-256): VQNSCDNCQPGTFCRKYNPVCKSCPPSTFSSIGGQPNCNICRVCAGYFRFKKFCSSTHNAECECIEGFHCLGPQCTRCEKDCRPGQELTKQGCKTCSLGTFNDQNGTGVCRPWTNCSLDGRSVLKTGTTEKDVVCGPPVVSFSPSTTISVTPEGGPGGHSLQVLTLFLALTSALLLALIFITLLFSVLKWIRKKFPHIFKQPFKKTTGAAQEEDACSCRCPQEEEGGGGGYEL

B1: FS20m-232-91AA/HEL D1.3 (antibody, V domains shown)
VH: QVQLQESGPGLVRPSQTLSLTCTVSGSTFSGYGVNWVRQPPGRGLEWIGMIWGDGNTDYNSALKSRVTMLVDTSKNQFSLRLSSVTAADTAVYYCARERDYRLDYWGQGSLVTVSS
VL: DIQMTQSPASLSASVGETVTITCRASGNIHNYLAWYQQKQGKSPQLLVYNAKTLADGVPSRFSGSGSGTQYSLKINSLQPEDFGSYYCQHFWSTPRTFGGGTKLEIKR
notes: also called OX40/HEL mock mAb^2
Turning to B1, the binding result in assay [1] was “no binding”.

B2: G1AA/OX86 (antibody, human IgG1, kappa, L234A L235A, V domains shown)
VH: QVQLKESGPGLVQPSQTLSLTCTVSGFSLTGYNLHWVRQPPGKGLEWMGRMRYDGDTYYNSVLKSRLSISRDTSKNQVFLKMNSLQTDDTAIYYCTRDGRGDSFDYWGQGVMVTVSS
VL: DIVMTQGALPNPVPSGESASITCRSSQSLVYKDGQTYLNWFLQRPGQSPQLLTYWMSTRASGVSDRFSGSGSGTYFTLKISRVRAEDAGVYYCQQVREYPFTFGSGTKLEIKR
Turning to B2, the “mouse pan-T cell activation assay, mIL-2 release EC50, crosslinked” value in [2] came out at 2.41 nM.

B3: FS20-22-49AA/FS30-10-12 (bispecific antibody, human IgG1, kappa, L234A L235A, V domains shown)
VH: EVQLLESGGGLVQPGGSLRLSCAASGFTFSSYDMSWVRQAPGKGLEWVSDIDPTGSKTDYADSVKGRFTISRDNSKNTLYLQMNSLRAEDTAVYYCARDLTVYGFDYWGQGTLVTVSS
VL: EIVLTQSPGTLSLSPGERATLSCRASQSVSSSYLAWYQQKPGQAPRLLIYGASSRATGIPDRFSGSGSGTDFTLTISRLEPEDFAVYYCQQSYSYPVTFGQGTKVEIKR
notes: IgG1 with LALA; also called OX40/CD137 mAb^2
Broadly, the EC50 is the concentration giving half of the maximal effect. As a reminder, the Kd is a measure of binding affinity in units of concentration. Read a low Kd as a tighter complex. With B3, the EC50 turned out to be 0.107 nM in assay [3], 0.368 nM in assay [4], 0.152 nM in assay [5] and 0.29 nM in assay [6]. The Kd was 0.255 nM with hCD137-mFc-Avi, 7.24 nM with cCD137-mFc-Avi, 0.37 nM in the assay with hOX40-mFc and 1.02 nM in the assay with cOX40-mFc. Besides, the “SEA assay (PBMC), hIL-2 max response, crosslinked” value in assay [7] was determined as 23700 pg/mL. In addition, the “SEA assay (PBMC), hIL-2 max response, no crosslinker” value in [7] is 24900 pg/mL. In [7], the “SEA assay (PBMC), hIL-2 release EC50, crosslinked” value was 2.33 nM. Moreover, in [7], the “SEA assay (PBMC), hIL-2 release EC50, no crosslinker” value was 1.36 nM. Also, in assay [8], the “EC50 of mIL-2 release, DO11.10-hCD137 assay, crosslinked” value was 9.5 nM. Besides, the “Emax of mIL-2 release, DO11.10-hCD137 assay, crosslinked” value in assay [8] was found to be 17200 pg/mL.

B4: G1AA/FS30-10-16 (antibody, human IgG1, kappa, L234A L235A, V domains shown)
VH: B3 VH with T101L
VL: B3 VL
Turning to B4, the “CD8+ T cell activation assay, hIL-2 release EC50, crosslinked” value in assay [9] was 3.88 nM.
